{"source": "paper PMC3019181", "about": "(BMC Microbiology, 2010)", "target": "the molecule itself", "assay": "two-hybrid; yeast; pJZ4-G clones in strain RFY231 mated with pHZ5-NRT clones in strain Y309; beta-galactosidase activity in Miller units (Yeast beta-Galactosidase Assay Kit, Pierce)", "data": [{"protein": "Wag31T73EMtb (phosphomimetic Wag31 of Mycobacterium tuberculosis) (natural protein, also called phosphomimetic Wag31T73EMtb; source: yeast two-hybrid fusion) MPLTPADVHNVAFSKPPIGKRGYNEDEVDAFLDLVENELTRLIEENSDLRQRINELDQELAAGGGAGVTPQAEQAIPAYEPEPGKPAPAAVSAGMNEEQALKAARVLSLAQDTADRLTNTAKAESDKMLADARANAEQILGEARHTADATVAEARQRADAMLADAQSRSEAQLRQAQEKADALQADAERKHSEIMGTINQQRAVLEGRLEQLRTFEREYRTRLKTYLESQLEELGQRGSAAPVDSNADAGGFDQFNRGKN", "values": [{"measurement": "fold interaction (beta-galactosidase activity) against wild-type Wag31Mtb with itself", "value": "~2", "unit": "fold"}]}]}
